Data as given in article PMC3565030.

Biological target: T1, Eco1 phosphopeptide “94-98-99” (phosphates at Thr94, Ser98 and Ser99), FITC-conjugated (budding yeast)
T1 chain: GTITPLNSSPLKK
Test: fluorescence polarisation

Kd: 10.3 µM
B1: Cdc4–Skp1 complex (His6-Cdc4-LP6DelA GST-Skp1), P07834 1-779; P52286 1-194 (complex)
chain 1: GTLIKDNLKRDLITSLPFEISLKIFNYLQFEDIINSLGVSQNWNKIIRKSTSLWKKLLISENFVSPKGFNSLNLKLSQKYPKLSQQDRLRLSFLENIFILKNWYNPKFVPQRTTLRGHMTSVITCLQFEDNYVITGADDKMIRVYDSINKKFLLQLSGHDGGVWALKYAHGGILVSGSTDRTVRVWDIKKGCCTHVFEGHNSTVRCLDIVEYKNIKYIVTGSRDNTLHVWKLPKESSVPDHGEEHDYPLVFHTPEENPYFVGVLRGHMASVRTVSGHGNIVVSGSYDNTLIVWDVAQMKCLYILSGHTDRIYSTIYDHERKRCISASMDTTIRIWDLENGELMYTLQGHTALVGLLRLSDKFLVSAAADGSIRGWDANDYSRKFSYHHTNLSAITTFYVSDNILVSGSENQFNIYNLRSGKLVHANILKDADQIWSVNFKGKTLVAAVEKDGQSFLEILDFS
chain 2: MVTSNVVLVSGEGERFTVDKKIAERSLLLKNYLNDMGDDDDEDDDEIVMPVPNVRSSVLQKVIEWAEHHRDSNFPDEDDDDSRKSAPVDSWDREFLKVDQEMLYEIILAANYLNIKPLLDAGCKVVAEMIRGRSPEEIRRTFNIVNDFTPEEEAAIRRENEWAEDR
modifications: not checked
